Reference: article PMC5553193 (2015)
Ends that are not written are not given here.

B1: Man-WYDLF (L37) (peptide)
chain: Man-WYDLF
B2: Man-WYDLFDNINS (L30) (peptide)
chain: Man-WYDLFDNINS

Molecular target: concanavalin A (Canavalia ensiformis, UniProt P02866)
Experiment: ITC

Chain of concanavalin A (P02866 whole entry, looked up): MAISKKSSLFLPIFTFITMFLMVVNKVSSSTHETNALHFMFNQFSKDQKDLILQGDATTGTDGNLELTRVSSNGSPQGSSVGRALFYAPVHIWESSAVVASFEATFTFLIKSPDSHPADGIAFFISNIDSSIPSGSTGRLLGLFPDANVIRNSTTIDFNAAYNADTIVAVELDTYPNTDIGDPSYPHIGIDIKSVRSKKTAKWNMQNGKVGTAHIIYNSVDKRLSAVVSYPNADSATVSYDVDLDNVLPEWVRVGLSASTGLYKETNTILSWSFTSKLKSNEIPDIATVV

Binder | Kd
B1 | 4.6 µM
B2 | 4.3 µM
